# T1: 4-([4-(H-Ala-Ala-Pro-Val-Ala)amido N-piperazino]phenyl)-bis-(4-dimethyl-aminophenyl)-carbenium ion
# T1 sequence: AAPVX
# T2: AAPVA-RBB linked to poly-(N-acroyl-Boc-Lys-OH)-co-(acroyl-Cys(Trt)-OH)
# T2 sequence: AAPVX
# T3: AAPVA-RBB linked to polymer, product of Step A of Example 62 after trifluoroacetic acid treatment
# T3 sequence: AAPVX
# T4: 4-([4-(H-Ala-Ala-Pro-Val-Ala)amido N-piperazino]phenyl)-bis-(4-dimethyl-aminophenyl)-carbenium ion polyacrylamide (not fully specified)
# T4 chain: AAPVX
# T5: AAAPV-RBB bound to Beads (Sephabeads ECEP, epoxy activated)
# T5 chain: AAAPX
# T6: AAAPV-RBB linked through Jeffamine EDR 176 to polyacrylate quenched with N,N-dioctyl amine (not fully specified)
# T6 chain: AAAPX
# T7: AAAPV-RBB polyacrylamide with N,N-dioctylamine anchors (not fully specified)
# T7 chain: AAAPX
# T8: AAAPVV-RBB linked through Jeffamine EDR 176 to polyacrylate quenched with N,N-dioctyl amine (not fully specified)
# T8 chain: AAAPVX
# T9: AAAPVV-RBB on polyacrylate bound to Chemicell SiCore Amin beads
# T9 chain: AAAPVX
# T10: AAAPVV-RBB on polyacrylate bound to SiCore Amin beads, procedure f
# T10 chain: AAAPVX
# T11: AAAPVV-RBB polyacrylamide with N,N-dioctylamine anchors (not fully specified)
# T11 chain: AAAPVX
# T12: AAPVA-RBB linked through ethylenediamine-glycyl spacer to polyacrylate (not fully specified)
# T12 chain: AAPVX
# T13: AAPVA-RBB linked to poly-(N-acroyl-Boc-Lys-OH)-co-(acroyl-Cys(Trt)-OH)
# T13 chain: AAPVX
# T14: AAPVA-RBB linked to polymer, product of Step A of Example 62 after trifluoroacetic acid treatment (not fully specified)
# T14 chain: AAPVX
# T15: Fmoc-AAA-indoxyl ester
# T15 chain: AAA
# T16: Fmoc-APV-Indoxyl ester
# T16 chain: APV
# T17: Fmoc-F-V-T(Bzl)-F- indoxyl ester (not fully specified)
# T17 chain: FVTF
# T18: H-AAAPM-RBB
# T18 chain: AAAPX
# T19: N-[(3-triethoxysilyl)propyl]-N'-[AAAPVV-RBB]urea bound to silica gel (not fully specified)
# T19 chain: XAAPVX
# T20: Non-bead-bound polymeric material of Example 67 (AAAPVV-RBB polyacrylamide quenched with ethanolamine) (not fully specified)
# T20 chain: AAAPVX
# T21: Poly-co-[(N-mercaptoethyl acrylamide)-(AAAPV-{RBB}-acrylamide)], procedure a (not fully specified)
# T21 chain: AAAPX
# T22: Poly-co-[(N-mercaptoethyl acrylamide)-(AAAPV-{RBB}-acrylamide)], procedure b
# T22 chain: AAAPX
# T23: Poly-co-[(N-mercaptoethyl acrylamide)-(AAAPVV-{RBB}-acrylamide)], procedure a
# T23 chain: AAAPVX
# T24: Poly-co-[(N-mercaptoethyl acrylamide)-(AAAPVV-{RBB}-acrylamide)], procedure b
# T24 chain: AAAPVX
# T25: Fmoc-AAPVAV-{2-hydroxy-3-[1-(5N-RBB-methyl)1,2,3-triazolyl)}propylamide
# T25 chain: XAPVAX
# T26: H-AAPFA-RBB
# T26 chain: AAPFX
# T27: H-AAPVAA-RBB
# T27 chain: AAPVAX
# B1: human elastase from leucocytes (protein)
# chain: IVGGRRARPHAWPFMVSLQLRGGHFCGATLIAPNFVMSAAHCVANVNVRAVRVVLGAHNLSRREPTRQVFAVQRIFENGYDPVNLLNDIVILQLNGSATINANVQVAQLPAQGRRLGNGVQCLAMGWGLLGRNRGIASVLQELNVTVVTSLCRRSNVCTLVRGRQAGVCFGDSGSPLVCNGLIHGIASFVRGGCASGLYPDAFAPVAQFVNWIDSIIQ
# B2: cathepsin G (protein)
# chain: IIGGRESRPHSRPYMAYLQIQSPAGQSRCGGFLVREDFVLTAAHCWGSNINVTLGAHNIQRRENTQQHITARRAIRHPQYNQRTIQNDIMLLQLSRRVRRNRNVNPVALPRAQEGLRPGTLCTVAGWGRVSMRRGTDTLREVQLRVQRDRQCLRIFGSYDPRRQICVGDRRERKAAFKGDSGGPLLCNNVAHGIVSYGKSSGVPPEVFTRVSSFLPWIRTTMRS
# Assays:
# [1] = test system: T1, 4-([4-(H-Ala-Ala-Pro-Val-Ala)amido N-piperazino]phenyl)-bis-(4-dimethyl-aminophenyl)-carbenium ion
# [2] = test system: T2, AAPVA-RBB linked to poly-(N-acroyl-Boc-Lys-OH)-co-(acroyl-Cys(Trt)-OH)
# [3] = test system: T3, AAPVA-RBB linked to polymer, product of Step A of Example 62 after trifluoroacetic acid treatment
# [4] = test system: CMC 9M31F-AAPF-RBB
# [5] = test system: CMC 9M31F-AAPFA-RBB
# [6] = test system: Fmoc-AAPF-aminoethyl-(Remazol Black B)-(N-acetyl)-ethylamide
# [7] = test system: H-AAPV-Ahx-CV
# [8] = target: T4, 4-([4-(H-Ala-Ala-Pro-Val-Ala)amido …)
# [9] = target: T5, AAAPV-RBB bound to Beads (Sephabeads …)
# [10] = target: T6, AAAPV-RBB linked through Jeffamine EDR …
# [11] = target: T7, AAAPV-RBB polyacrylamide with …
# [12] = target: T8, AAAPVV-RBB linked through Jeffamine EDR …
# [13] = target: T9, AAAPVV-RBB on polyacrylate bound to …
# [14] = target: T10, AAAPVV-RBB on polyacrylate bound to …
# [15] = target: T11, AAAPVV-RBB polyacrylamide with …
# [16] = target: AAPV-RBB-Labelled Silica
# [17] = target: T12, AAPVA-RBB linked through …
# [18] = target: T13, AAPVA-RBB linked to …
# [19] = target: T14, AAPVA-RBB linked to polymer, product of …
# [20] = target: T15, Fmoc-AAA-indoxyl ester
# [21] = target: Fmoc-AAAA-Indoxyl ester
# [22] = target: Fmoc-AAAPV-(N-acetyl)-indoxyl ester
# [23] = target: Fmoc-AAAPV-3-Indolamide
# [24] = target: Fmoc-AAAPV-Indoxylester
# [25] = target: Fmoc-AAPA-Indoxyl ester
# [26] = target: Fmoc-AAPF-Indoxyl ester
# [27] = target: Fmoc-AAPV-(2-Napthol)
# [28] = target: Fmoc-AAPV-4-methoxy-1-naphthol ester
# [29] = target: Fmoc-AAPV-4-naphthol ester
# [30] = target: Fmoc-AAPV-5-Bromo-4-Chloro-Indoxyl ester
# [31] = target: Fmoc-AAPV-Indoxyl ester
# [32] = target: T16, Fmoc-APV-Indoxyl ester
# [33] = target: T17, Fmoc-F-V-T(Bzl)-F- indoxyl ester
# [34] = target: T18, H-AAAPM-RBB
# [35] = target: HEC-EDR176-N-Propionyl-AAPVA-RBB
# [36] = target: N-(Propionyl-AAPV-RBB)-Propylamino HEC
# [37] = target: T19, N-[(3-triethoxysilyl)propyl]-N'-[AAAPVV- …
# [38] = target: T20, Non-bead-bound polymeric material of …
# [39] = target: Peptide-Labelled beadBALL Amine Microspheres with Long-Chain Linker (PEG(2000)-AAPV-RBB)
# [40] = target: T21, Poly-co-[(N-mercaptoethyl …)
# [41] = target: T22, Poly-co-[(N-mercaptoethyl …)
# [42] = target: T23, Poly-co-[(N-mercaptoethyl …)
# [43] = target: T24, Poly-co-[(N-mercaptoethyl …)
# [44] = target: AAPVA-RBB Bound to Paper Membrane
# [45] = target: CMC 9M31F-AAPF-RBB; remark: listed apart in the source
# [46] = target: CMC 9M31F-AAPFA-RBB; remark: listed apart in the source
# [47] = target: Fmoc-AAAPM-RBB
# [48] = target: Fmoc-AAPF-aminoethyl-(Remazol Black B)-(N-acetyl)-ethylamide; remark: listed apart in the source
# [49] = target: T25, Fmoc-AAPVAV-{2-hydroxy-3-[1-(5N-RBB-meth …)
# [50] = target: H-AAPF-RBB
# [51] = target: T26, H-AAPFA-RBB
# [52] = target: T27, H-AAPVAA-RBB
# [53] = target: HEC-EDA-N-propionyl-AAPF-RBB
# [54] = target: HEC-PEG200-N-propionyl-AAPF-RBB
molecule,measurement,setting,value
elastase,"release of A-CV, MS-analysis",[1],"Treatment of the material with elastase released A-CV, as found by MS-analysis (m/z=484, positive mode)"
same,"release of Ala-RBB, MS-analysis",[2],"Treatment with elastase released Ala-RBB, as found by MS-analysis (m/z=571, negative mode)"
same,"release of A-RBB, MS-analysis",[3],"Treatment with elastase released A-RBB, as found by MS-analysis (m/z=571, negative mode)"
same,"release of the dye, ESI MS",[4],Reaction with elastase is detected using ESI MS to detect the release of the dye
same,"release of the dye, ESI MS",[5],Reaction with elastase was detected using ESI MS to detect the release of the dye
same,"cleavage, product found by MS",[6],reaction with elastase to yield the mono-acetylated-Remazol Black B-amino derivative
same,"release of Ahx-CV, MS-analysis",[7],"Treatment of the product of Example 72 with elastase releases no Ahx-CV, as found by MS-analysis (no m/z=526, positive mode)"
B1,Human Elastase Cleavage,[8],0(+)
same,"release of A-CV, mass peak",[8],"Treatment with porcine and human elastase releases A-CV, as proven by the appearance of a mass peak at m/z=484"
same,Human Elastase Cleavage,[9],0
same,Human Elastase Cleavage,[10],+
same,Human Elastase Cleavage,[11],++
same,Human Elastase Cleavage,[12],+
same,Human Elastase Cleavage,[13],0
same,Human Elastase Cleavage,[14],0
same,Human Elastase Cleavage,[15],+++
same,Human Elastase Cleavage,[16],++
same,Human Elastase Cleavage,[17],+
same,Human Elastase Cleavage,[18],+
same,Human Elastase Cleavage,[19],++
same,Human Elastase Cleavage,[20],++
same,Human Elastase Cleavage,[21],0
same,Human Elastase Cleavage,[22],++
same,Human Elastase Cleavage,[23],++
same,Human Elastase Cleavage,[24],++
same,Human Elastase Cleavage,[25],+++
same,Human Elastase Cleavage,[26],+
same,Human Elastase Cleavage,[27],+
same,Human Elastase Cleavage,[28],+
same,Human Elastase Cleavage,[29],+
same,Human Elastase Cleavage,[30],+++
same,Human Elastase Cleavage,[31],+++
same,Human Elastase Cleavage,[32],+
same,Human Elastase Cleavage,[33],0
same,Human Elastase Cleavage,[34],+
same,Human Elastase Cleavage,[35],+++
same,Human Elastase Cleavage,[36],+++
same,Human Elastase Cleavage,[37],+++
same,Human Elastase Cleavage,[38],+++
same,Human Elastase Cleavage,[39],0
same,Human Elastase Cleavage,[40],++
same,Human Elastase Cleavage,[41],++
same,Human Elastase Cleavage,[42],+++
same,Human Elastase Cleavage,[43],+++
B2,Cathepsin Cleavage,[44],0
same,Cathepsin Cleavage,[45],++
same,Cathepsin Cleavage,[46],++
same,Cathepsin Cleavage,[20],0
same,Cathepsin Cleavage,[21],0
same,Cathepsin Cleavage,[47],0
same,Cathepsin Cleavage,[25],0
same,Cathepsin Cleavage,[26],0
same,Cathepsin Cleavage,[48],0
same,Cathepsin Cleavage,[27],0
same,Cathepsin Cleavage,[28],0
same,Cathepsin Cleavage,[29],0
same,Cathepsin Cleavage,[49],0
same,Cathepsin Cleavage,[32],0
same,Cathepsin Cleavage,[33],0
same,Cathepsin Cleavage,[34],0
same,Cathepsin Cleavage,[50],0
same,Cathepsin Cleavage,[51],0
same,Cathepsin Cleavage,[52],0
same,Cathepsin Cleavage,[53],+
same,Cathepsin Cleavage,[54],+

# Reference: patent US20240027454
